Biological target: chicken IgY (chicken)
Assay: BLI; Octet, SAX (streptavidin) biosensors; Fabs at multiple concentrations; KD from a kinetic 1:1 model, global fits (R^2 > 0.98); as described previously (ref. 7)

Row | Kd | Binder
1 | 0.062 nM | Fab fragment of a high-affinity variant of clone 2.1 (2.1^hi) (Fab, V domains shown) VH: EVQLQESGPSLVKPSQTLSLTCSVTGASITSGYWNWIRKFPGNRLEYMGYISYSGGTYYNPSLKSRISITRDTSKNQYYLQLNSVTTEDTATYYCARDFDVWGAGTTVTVSS VL: DIVMTQSQKFMSTSVGDRVSVTCKASQNVGTNVGWFQQKPGQSPKSLIYSASYRYSGVPDRFTGSGSGTDFTLTISNVQSEDLAEYFCHQYYSYPLTFGSGTKLEIK

Biological target: chicken IgY (chicken)
Assay: BLI; Octet, SAX (streptavidin) biosensors; recombinant Fabs against IgY; KD from a kinetic 1:1 model, global fit over multiple concentrations (partial fits averaged for 3 low-affinity Fabs)

Row | Kd | koff | kon | Binder
2 | 1.83 nM | 0.00011 s⁻¹ | 59800 M⁻¹ s⁻¹ | clone 2.1 Fab L_11 (affinity ladder) (Fab, V domains shown) VH: EVQLQESGPSLVKPSQTLSLTCSVTGDSITSGYWNWIRKFPGNKLEYMGYISYSGSTYYNPSLKSRISITRDTSTNQYYLQLNSVTTEDTATYFCARDFDVWGAGTTVTVSS VL: DIVMTQSQKFMSTSVGDRVSVTCKASQNVGTNVGWYQQKPGQSPKALIYSASYRYSGVPDRFTGSGSGTDFTLTISNVQSEDLAEYFCQQYNSYPLTFGSGTKLEIK
3 | 4.21 nM | 0.000383 s⁻¹ | 90900 M⁻¹ s⁻¹ | clone 2.1 Fab TA_2 (Fab, V domains shown) VH: EVQLQESGPSLVKPSQTLSLTCSVTGDSITSGYWNWIRKFPGNKLEYMGYISYSGSTYYNPSLKSRISITRDTSKNQYYLQLNSVTTEDTATYYCARDFDVWGAGTTVTVSS VL: DIVMTQSQKFMSTSVGDRVSVTCKASQNVGTNVGWYQQKPGQSPKALIYSASYRYSGVPDRFTGSGSGTDFTLTISNVQSEDLAEYFCQQYNSYPLTFGSGTKLEIK
4 | 1.21 nM | 0.000462 s⁻¹ | 381000 M⁻¹ s⁻¹ | clone 2.1 Fab L_10 (affinity ladder) (Fab, V domains shown) VH: EVQLQESGPGLVKPSQTLSLTCSVTGDSITSGYWNWIRKFPGNKLEYMGYISYSGSTYYNPSLKSRVSITRDTSKNQHYLQLNSVTTEDTATYYCGRDFDVWGAGTTVTVSS VL: DIVMTQSQKFMSTSVGDRVSVTCKASQNVGTNVAWYQQKPGQSPKALIYSASYRYSGVPDRFTGSGSGTDFTLTISNVQSEDLAEYFCQQYKSYPLTFGSGTKLEIK
5 | 1.34 nM | 0.000349 s⁻¹ | 261000 M⁻¹ s⁻¹ | clone 2.1 Fab CB_07 (clonal burst) (Fab, V domains shown) VH: EVQLQESGPSLVKPSQTLSLTCSVTGDSITSGYWNWIRKFPGNKLEYMGYISYSGSTYYNPSLKSRISITRDTSKNQYYLQLNSVTTEDTATYYCGRDFDVWGAGTTVTVSS VL: DIVMTQSQKFMSTSVGDRVSVTCKASQNVGTNVAWYQQKPGQSPKALIYSASYRYSGVPDRFTGSGSGTDFTLTISNVQSEDLAEYFCQQYKSYPLTFGSGTKLEIK
6 | 54 nM | 0.00767 s⁻¹ | 142000 M⁻¹ s⁻¹ | clone 2.1 Fab TA_3 (Fab, V domains shown) VH: EVQLQESGPSLVKPSQTLSLTCSVTGDSITSGYWNWIRKFPGNKLEYMGYISYSGSTYYNPSLKSRISITRDTSKNQYYLQLNSVTTEDTATYYCARDFDVWGAGTTVTVSS VL: DIVMTQSQKFMSTSVGDRVSVTCKASQNVGTNVVWYQQKPGQSPKALIYSASYRYSGVPDRFTGSGSGTDFTLTISNVQSEDLAEYFCQQYNSYPLTFGSGTKLEIK
7 | 0.127 nM | 3.73e-05 s⁻¹ | 294000 M⁻¹ s⁻¹ | clone 2.1 Fab CB_10 (clonal burst) (Fab, V domains shown) VH: EVQLQESGPSLVKPSQTLSLTCSVTGDSITSGYWNWIRKFPGNKLEYMGYISYSGSTYYNPSLKSRISITRDTSKNQYYLQLNSVTTEDTATYYCGRDFDVWGAGTTVTVSS VL: DIVMTQSQKFMSTSVGDRVSVTCKASQNVGTNVGWYQQKPGQSPKALIYSASYRYSGVPDRFTGSGSGTDFTLTISNVQSEDLAEYFCQQYNRYPLTFGSGTKLEIK
8 | 2.84 nM | 0.000359 s⁻¹ | 126000 M⁻¹ s⁻¹ | clone 2.1 Fab TA_1 (Fab, V domains shown) VH: EVQLQESGPSLVKPSQTLSLTCSVTGDSITSGYWNWIRKFPGNRLEYMGYISFSGSTYYNPSLKSRISITRDTSKNQYYLQLNSVTTEDTATYYCARDFDVWGAGTTVTVSS VL: DIVMTQSQKFMSTSVGDRVSVTCKASQNVGTNVGWYQQKPGQSPKALIYSASYRYSGVPDRFTGSGSGTDFTLTISNVQSEDLAEYFCQQYNSYPLTFGSGTKLEIK
9 | 6.76 nM | 0.00149 s⁻¹ | 221000 M⁻¹ s⁻¹ | clone 2.1 Fab CB_05 (clonal burst) (Fab, V domains shown) VH: EVQLQESGPSLVKPSQTLSLTCSVTGDSITSGYWNWIRKFPGNKLEYMGYISYSGSTYYNPSLKSRISITRDTSKNQYYLQLNSVTTEDTATYYCGRDFDVWGAGTTVTVSS VL: DIVMTQSQKFMSTSVGDRVSVTCKASQNVGTNVAWYQQKPGQSPKALIYSASYRYSGVPDRFTGSGSGTDFTLTISNVQSEDLAEYFCQQYNSYPLTFGSGTKLEIK
10 | 71.1 nM | 0.00792 s⁻¹ | 111000 M⁻¹ s⁻¹ | clone 2.1 Fab TA_4 (Fab, V domains shown) VH: EVQLQESGPSLVKPSQTLSLTCSVTGDSITSGYWNWIRKFPGNKLEYMGYISYSGSTYYNPSLKSRISITRDTSKNQYYLQLNSVTTEDTATYYCARDFDVWGAGTTVTVSS VL: DIVMTQSQKFMSTSVGDRVSVTCKASQNVGTNVVWYQQKPGQSPKALIYSASYRYSGVPDRFTGSGSGTDFTLTISNVQSEDLAEYFCQQYDSYPLTFGSGTKLEIK

From publication PMC13360575
